Usually stoichiometry N stands for a count of units in the complex or per binding partner.

Sequences and labels used below:
B1: mouse XXYLT1 (Xylosideα1–3 Xylosyltransferase), soluble domain S43–D392 after limited proteolysis with trypsin (enzyme, UniProt Q3U4G3 93-391, looked up)
chain: VVPVDYHLLMMFTKAEHNAPLQAKARVALSSLLRLAKFEAHEVLNLHFVSEEASREVAKALLRELLPPAAGFKCKVIFHDVAVLTDKLFPVVEAMQKYFSAGSGTYYSDSIFFLSVAMHQIMPKEIPRIIQLDLDLKYKTNIRELFEEFDNFLPGAVIGIAREMQPVYRHTFWQFRHENPKTRVGDPPPEGLPGFNSGVMLLNLEAMRQSPLYSHLLEPSWVQQLADKYHFRGHLGDQDFFTMIGMEHPELFHVLDCTWNRQLCTWWRDHGYSDVFQAYFRCEGHVKIYHGNCNTPIPE

The data set “crystal structure” concerns the molecule itself. Kind of data set: crystal structure.
Data set [1] has as its target B1. Put plainly: SEC.
Data set [2] deals with B1. Put plainly: crystal structure.

In the case of B1, in the data set “crystal structure”, the “stoichiometry N” value is 2.

As for VDGDQCESNPCLNGGSCKDDINSYECWCPFGFEGKNCEL (domain or fragment, Xyl-Glc disaccharide on Ser53) [human factor IX (hFA9) EGF repeat modified with the Xyl-Glc disaccharide], the binding result in data set [1] was “binds”.

For VDGDQCESNPCLNGGSCKDDINSYECWCPFGFEGKNCEL (domain or fragment, Xyl-Xyl-Glc trisaccharide on Ser53) [human factor IX (hFA9) EGF repeat with the Xyl-Xyl-Glc trisaccharide (product of XXYLT1)], the binding result in data set [2] is “binds”.

The values are drawn from PMC4618232 (Nature chemical biology, 2015).
